Measured values published in publication doi:10.1101/2020.01.07.897124 (bioRxiv, 2020).
Like-named read-outs stand apart in the source and are kept apart here.

B1: human SOAT1-dimer (66-550), purified, tags removed (domain or fragment, UniProt P35610 66-550, looked up)
chain: MKEVGSHFDDFVTNLIEKSASLDNGGCALTTFSVLEGEKNNHRAKDLRAPPEQGKIFIARRSLLDELLEVDHIRTIYHMFIALLILFILSTLVVDYIDEGRLVLEFSLLSYAFGKFPTVVWTWWIMFLSTFSVPYFLFQHWATGYSKSSHPLIRSLFHGFLFMIFQIGVLGFGPTYVVLAYTLPPASRFIIIFEQIRFVMKAHSFVRENVPRVLNSAKEKSSTVPIPTVNQYLYFLFAPTLIYRDSYPRNPTVRWGYVAMKFAQVFGCFFYVYYIFERLCAPLFRNIKQEPFSARVLVLCVFNSILPGVLILFLTFFAFLHCWLNAFAEMLRFGDRMFYKDWWNSTSYSNYYRTWNVVVHDWLYYYAYKDFLWFFSKRFKSAAMLAVFAVSAVVHEYALAVCLSFFYPVLFVLFMFFGMAFNFIVNDSRKKPIWNVLMWTSLFLGNGVLLCFYSQEWYARQHCPLKNPTFLDYVRPRSWTCRYVF
B2: human SOAT1 full-length (1-550), purified, tags removed (enzyme, UniProt P35610 1-550, looked up)
chain: MVGEEKMSLRNRLSKSRENPEEDEDQRNPAKESLETPSNGRIDIKQLIAKKIKLTAEAEELKPFFMKEVGSHFDDFVTNLIEKSASLDNGGCALTTFSVLEGEKNNHRAKDLRAPPEQGKIFIARRSLLDELLEVDHIRTIYHMFIALLILFILSTLVVDYIDEGRLVLEFSLLSYAFGKFPTVVWTWWIMFLSTFSVPYFLFQHWATGYSKSSHPLIRSLFHGFLFMIFQIGVLGFGPTYVVLAYTLPPASRFIIIFEQIRFVMKAHSFVRENVPRVLNSAKEKSSTVPIPTVNQYLYFLFAPTLIYRDSYPRNPTVRWGYVAMKFAQVFGCFFYVYYIFERLCAPLFRNIKQEPFSARVLVLCVFNSILPGVLILFLTFFAFLHCWLNAFAEMLRFGDRMFYKDWWNSTSYSNYYRTWNVVVHDWLYYYAYKDFLWFFSKRFKSAAMLAVFAVSAVVHEYALAVCLSFFYPVLFVLFMFFGMAFNFIVNDSRKKPIWNVLMWTSLFLGNGVLLCFYSQEWYARQHCPLKNPTFLDYVRPRSWTCRYVF

Columns and labels:
[1] = target: the molecule itself; assay: cryo-EM structure
[2] = target: the molecule itself; assay: cryo-EM structure; remark: listed apart in the source

Protein | stoichiometry N [1] | stoichiometry N [2]
B1 | 2 | –
B2 | – | 4
